Experimental data published in paper PMC10977726 (PLOS ONE, 2024).

Columns and labels:
Settings in all cases: both partners purified
[1] = biological target: T1, human IgG Fc (Biotin-SP-ChromPure Human IgG, Fc fragment) (human, biotin (Biotin-SP)); assay: SPR; […]; Biacore S200, […] (PBS with 0.05% Tween 20, pH 7.4); […]
[2] = biological target: T2, biotin-Ly6E-rat IgG2b Fc (human | rat, biotin); assay: as above
T2 chain: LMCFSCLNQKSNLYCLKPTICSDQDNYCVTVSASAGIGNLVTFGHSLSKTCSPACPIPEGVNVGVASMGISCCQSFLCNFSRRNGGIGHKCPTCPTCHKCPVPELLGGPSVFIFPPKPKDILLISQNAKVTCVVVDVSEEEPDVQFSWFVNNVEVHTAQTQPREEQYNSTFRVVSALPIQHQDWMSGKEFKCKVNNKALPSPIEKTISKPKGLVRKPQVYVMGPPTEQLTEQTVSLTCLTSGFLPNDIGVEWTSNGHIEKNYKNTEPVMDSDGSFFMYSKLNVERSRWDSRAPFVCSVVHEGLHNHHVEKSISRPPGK

[3] = biological target: T1, human IgG Fc (Biotin-SP-ChromPure Human …); assay: SPR
[4] = biological target: T1, human IgG Fc (Biotin-SP-ChromPure Human …); assay: ELISA; […], room temperature; […]
[5] = biological target: T3, biotin-PDGF-bb (human, UniProt P01127 82-190, biotin); assay: SPR; […]; Biacore S200, […] (PBS with 0.05% Tween 20, pH 7.4); […]
T3 construct: also called human platelet-derived growth factor
T3 sequence (P01127 82-190): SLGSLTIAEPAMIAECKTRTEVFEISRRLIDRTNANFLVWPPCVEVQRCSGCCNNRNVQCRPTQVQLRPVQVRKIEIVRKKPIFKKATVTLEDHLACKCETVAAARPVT

Binder | Kd [1] [nM] | IC50 [4] [nM] | further results
CKGKGAKCSRLMYDCCTGSCRSGKC [WT CON] | > 20000 |  | 
GCNMYSGPWRYFCKQDSDCLAGCVCGPNGFCG (designed binder) [L-EET-5] |  |  | Kd [2]: > 20000 nM
GECKGKGAKCSSISIHDAHCCTGSCRSGKC (designed binder) [recombinant Ig-CON-5 after TEV protease digestion] |  |  | Kd [3]: 10 nM
GCQIYQSQWSYLCKQDSDCLAGCVCGPNGFCG (designed binder) [L-EET-8] |  |  | Kd [2]: > 20000 nM
GCQAHYWYRVWFCKQDSDCLAGCVCGPNGFCG (designed binder) [Ig-EET-1] | 228 | 447 | 
VGECVRGRCSSISCCSQFGYCGKGPKYCG (designed binder) [Ig-AMP-4] | > 1000 | 151 | 
VGECVRGRCSAISCCSQFGYCGKGPKYCG (designed binder) [Ig-AMP-2] |  | 41 | 
VGECVRGRCSQISCCSQFGYCGKGPKYCG (designed binder) [Ig-AMP-3] | 353 | 62 | 
VGECVRGRCSKISCCSQFGYCGKGPKYCG (designed binder) [Ig-AMP-1] | 243 | 55 | 
GCAFEGESCNVQFYPCCVSMKLMCIPGNPDGTCYYL (designed binder) [P-AST-3] |  |  | Kd [5]: > 50000 nM
GCGYWYMQWFCKQDSDCLAGCVCRPKPECG (designed binder) [Ig-EET-4] | 948 | 823 | 
GCAIYHMGWMFQCKQDSDCLAGCVCGPNGFCG (designed binder) [L-EET-7] |  |  | Kd [2]: 22 nM
